Data reported in USRE49847 (dated 2024).

T1: soluble CD22-Fc (R&D Systems) (UniProt P20273 20-687)
T1 construct: Bought reagent used to stain CD22 CARs; not shown: Fc part; detected with anti-human IgG Fc-gamma secondary
T1 sequence (looked up): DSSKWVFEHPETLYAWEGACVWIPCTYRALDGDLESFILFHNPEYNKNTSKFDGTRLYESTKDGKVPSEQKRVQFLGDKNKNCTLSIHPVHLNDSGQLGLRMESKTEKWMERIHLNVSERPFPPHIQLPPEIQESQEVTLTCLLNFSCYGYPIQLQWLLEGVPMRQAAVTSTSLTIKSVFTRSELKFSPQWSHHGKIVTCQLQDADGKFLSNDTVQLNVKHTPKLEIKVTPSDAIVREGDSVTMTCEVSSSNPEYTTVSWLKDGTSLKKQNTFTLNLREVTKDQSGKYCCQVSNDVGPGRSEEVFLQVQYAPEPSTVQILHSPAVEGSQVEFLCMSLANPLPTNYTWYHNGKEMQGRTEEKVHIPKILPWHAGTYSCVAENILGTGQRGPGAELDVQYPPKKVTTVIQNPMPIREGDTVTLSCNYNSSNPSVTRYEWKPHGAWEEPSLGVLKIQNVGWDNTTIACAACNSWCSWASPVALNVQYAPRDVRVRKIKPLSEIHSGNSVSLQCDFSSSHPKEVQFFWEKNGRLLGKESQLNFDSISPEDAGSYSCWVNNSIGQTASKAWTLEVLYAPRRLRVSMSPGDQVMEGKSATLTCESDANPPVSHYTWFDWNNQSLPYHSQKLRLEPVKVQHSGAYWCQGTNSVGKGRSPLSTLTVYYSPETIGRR

B1: control anti-CD22 CAR CAR22-65 (other)
chain: EVQLQQSGPGLVKPSQTLSLTCAISGDSMLSNSDTWNWIRQSPSRGLEWLGRTYHRSTWYDDYASSVRGRVSINVDTSKNQYSLQLNAVTPEDTGVYYCARVRLQDGNSWSDAFDVWGQGTMVTVSSGGGGSGGGGSGGGGSQSALTQPASASGSPGQSVTISCTGTSSDVGGYNYVSWYQQHPGKAPKLMIYDVSNRPSGVSNRFSGSKSGNTASLTISGLQAEDEADYYCSSYTSSSTLYVFGTGTQLTVL
notes: also called CAR22-65 Long; not shown: hinge, transmembrane, 4-1BB and CD3zeta parts of the CAR
B2: tandem CD22/CD19 CAR construct 182 (other)
chain: EVQLQQSGPGLVKPSQTLSLTCAISGDSMLSNSDTWNWIRQSPSRGLEWLGRTYHRSTWYDDYASSVRGRVSINVDTSKNQYSLQLNAVTPEDTGVYYCARVRLQDGNSWSDAFDVWGQGTMVTVSSGGGGSGGGGSGGGGSQSALTQPASASGSPGQSVTISCTGTSSDVGGYNYVSWYQQHPGKAPKLMIYDVSNRPSGVSNRFSGSKSGNTASLTISGLQAEDEADYYCSSYTSSSTLYVFGTGTQLTVLGGGGSEIVMTQSPATLSLSPGERATLSCRASQDISKYLNWYQQKPGQAPRLLIYHTSRLHSGIPARFSGSGSGTDYTLTISSLQPEDFAVYFCQQGNTLPYTFGQGTKLEIKGGGGSGGGGSGGGGSQVQLQESGPGLVKPSETLSLTCTVSGVSLPDYGVSWIRQPPGKGLEWIGVIWGSETTYYQSSLKSRVTISKDNSKNQVSLKLSSVTAADTAVYYCAKHYYYGGSYAMDYWGQGTLVTVSSTTTPAPRPPTPAPTIASQPLSLRPEACRPAAGGAVHTRGLDFACDIYIWAPLAGTCGVLLLSLVITLYCKRGRKKLLYIFKQPFMRPVQTTQEEDGCSCRFPEEEEGGCELRVKFSRSADAPAYQQGQNQLYNELNLGRREEYDVLDKRRGRDPEMGGKPRRKNPQEGLYNELQKDKMAEAYSEIGMKGERRRGKGHDGLYQGLSTATKDTYDALHMQALPPR
notes: Distal anti-CD22 scFv H/L, GGGGS, proximal anti-CD19 scFv; leader 1-21 left out; also called CG#c182; c182
B3: tandem CD22/CD19 CAR construct 181 (other)
chain: EVQLQQSGPGLVKPSQTLSLTCAISGDSMLSNSDTWNWIRQSPSRGLEWLGRTYHRSTWYDDYASSVRGRVSINVDTSKNQYSLQLNAVTPEDTGVYYCARVRLQDGNSWSDAFDVWGQGTMVTVSSGGGGSGGGGSGGGGSQSALTQPASASGSPGQSVTISCTGTSSDVGGYNYVSWYQQHPGKAPKLMIYDVSNRPSGVSNRFSGSKSGNTASLTISGLQAEDEADYYCSSYTSSSTLYVFGTGTQLTVLLAEAAAKEIVMTQSPATLSLSPGERATLSCRASQDISKYLNWYQQKPGQAPRLLIYHTSRLHSGIPARFSGSGSGTDYTLTISSLQPEDFAVYFCQQGNTLPYTFGQGTKLEIKGGGGSGGGGSGGGGSQVQLQESGPGLVKPSETLSLTCTVSGVSLPDYGVSWIRQPPGKGLEWIGVIWGSETTYYQSSLKSRVTISKDNSKNQVSLKLSSVTAADTAVYYCAKHYYYGGSYAMDYWGQGTLVTVSSTTTPAPRPPTPAPTIASQPLSLRPEACRPAAGGAVHTRGLDFACDIYIWAPLAGTCGVLLLSLVITLYCKRGRKKLLYIFKQPFMRPVQTTQEEDGCSCRFPEEEEGGCELRVKFSRSADAPAYQQGQNQLYNELNLGRREEYDVLDKRRGRDPEMGGKPRRKNPQEGLYNELQKDKMAEAYSEIGMKGERRRGKGHDGLYQGLSTATKDTYDALHMQALPPR
notes: Distal anti-CD22 scFv H/L, LAEAAAK, proximal anti-CD19 scFv; leader 1-21 left out; also called CG#c181; c181
B4: tandem CD22/CD19 CAR construct 183 (other)
chain: EVQLQQSGPGLVKPSQTLSLTCAISGDSMLSNSDTWNWIRQSPSRGLEWLGRTYHRSTWYDDYASSVRGRVSINVDTSKNQYSLQLNAVTPEDTGVYYCARVRLQDGNSWSDAFDVWGQGTMVTVSSGGGGSQSALTQPASASGSPGQSVTISCTGTSSDVGGYNYVSWYQQHPGKAPKLMIYDVSNRPSGVSNRFSGSKSGNTASLTISGLQAEDEADYYCSSYTSSSTLYVFGTGTQLTVLLAEAAAKEIVMTQSPATLSLSPGERATLSCRASQDISKYLNWYQQKPGQAPRLLIYHTSRLHSGIPARFSGSGSGTDYTLTISSLQPEDFAVYFCQQGNTLPYTFGQGTKLEIKGGGGSGGGGSGGGGSQVQLQESGPGLVKPSETLSLTCTVSGVSLPDYGVSWIRQPPGKGLEWIGVIWGSETTYYQSSLKSRVTISKDNSKNQVSLKLSSVTAADTAVYYCAKHYYYGGSYAMDYWGQGTLVTVSSTTTPAPRPPTPAPTIASQPLSLRPEACRPAAGGAVHTRGLDFACDIYIWAPLAGTCGVLLLSLVITLYCKRGRKKLLYIFKQPFMRPVQTTQEEDGCSCRFPEEEEGGCELRVKFSRSADAPAYQQGQNQLYNELNLGRREEYDVLDKRRGRDPEMGGKPRRKNPQEGLYNELQKDKMAEAYSEIGMKGERRRGKGHDGLYQGLSTATKDTYDALHMQALPPR
notes: Distal anti-CD22 scFv H/L short linker, LAEAAAK, proximal anti-CD19 scFv; leader 1-21 left out; also called CG#c183; c183
B5: tandem CD19/CD22 CAR construct 171 (other)
chain: EIVMTQSPATLSLSPGERATLSCRASQDISKYLNWYQQKPGQAPRLLIYHTSRLHSGIPARFSGSGSGTDYTLTISSLQPEDFAVYFCQQGNTLPYTFGQGTKLEIKGGGGSGGGGSGGGGSQVQLQESGPGLVKPSETLSLTCTVSGVSLPDYGVSWIRQPPGKGLEWIGVIWGSETTYYQSSLKSRVTISKDNSKNQVSLKLSSVTAADTAVYYCAKHYYYGGSYAMDYWGQGTLVTVSSLAEAAAKEVQLQQSGPGLVKPSQTLSLTCAISGDSMLSNSDTWNWIRQSPSRGLEWLGRTYHRSTWYDDYASSVRGRVSINVDTSKNQYSLQLNAVTPEDTGVYYCARVRLQDGNSWSDAFDVWGQGTMVTVSSGGGGSGGGGSGGGGSQSALTQPASASGSPGQSVTISCTGTSSDVGGYNYVSWYQQHPGKAPKLMIYDVSNRPSGVSNRFSGSKSGNTASLTISGLQAEDEADYYCSSYTSSSTLYVFGTGTQLTVLTTTPAPRPPTPAPTIASQPLSLRPEACRPAAGGAVHTRGLDFACDIYIWAPLAGTCGVLLLSLVITLYCKRGRKKLLYIFKQPFMRPVQTTQEEDGCSCRFPEEEEGGCELRVKFSRSADAPAYQQGQNQLYNELNLGRREEYDVLDKRRGRDPEMGGKPRRKNPQEGLYNELQKDKMAEAYSEIGMKGERRRGKGHDGLYQGLSTATKDTYDALHMQALPPR
notes: Distal anti-CD19 scFv, LAEAAAK, proximal anti-CD22 scFv H/L; also called CG#c171; c171
B6: tandem CD19/CD22 CAR construct 173 (other)
chain: EIVMTQSPATLSLSPGERATLSCRASQDISKYLNWYQQKPGQAPRLLIYHTSRLHSGIPARFSGSGSGTDYTLTISSLQPEDFAVYFCQQGNTLPYTFGQGTKLEIKGGGGSGGGGSGGGGSQVQLQESGPGLVKPSETLSLTCTVSGVSLPDYGVSWIRQPPGKGLEWIGVIWGSETTYYQSSLKSRVTISKDNSKNQVSLKLSSVTAADTAVYYCAKHYYYGGSYAMDYWGQGTLVTVSSLAEAAAKEVQLQQSGPGLVKPSQTLSLTCAISGDSMLSNSDTWNWIRQSPSRGLEWLGRTYHRSTWYDDYASSVRGRVSINVDTSKNQYSLQLNAVTPEDTGVYYCARVRLQDGNSWSDAFDVWGQGTMVTVSSGGGGSQSALTQPASASGSPGQSVTISCTGTSSDVGGYNYVSWYQQHPGKAPKLMIYDVSNRPSGVSNRFSGSKSGNTASLTISGLQAEDEADYYCSSYTSSSTLYVFGTGTQLTVLTTTPAPRPPTPAPTIASQPLSLRPEACRPAAGGAVHTRGLDFACDIYIWAPLAGTCGVLLLSLVITLYCKRGRKKLLYIFKQPFMRPVQTTQEEDGCSCRFPEEEEGGCELRVKFSRSADAPAYQQGQNQLYNELNLGRREEYDVLDKRRGRDPEMGGKPRRKNPQEGLYNELQKDKMAEAYSEIGMKGERRRGKGHDGLYQGLSTATKDTYDALHMQALPPR
notes: Distal anti-CD19 scFv, LAEAAAK, proximal anti-CD22 scFv H/L with short linker; leader 1-21 left out; also called CG#c173; c173
B7: tandem CD19/CD22 CAR construct 174 (other)
chain: EIVMTQSPATLSLSPGERATLSCRASQDISKYLNWYQQKPGQAPRLLIYHTSRLHSGIPARFSGSGSGTDYTLTISSLQPEDFAVYFCQQGNTLPYTFGQGTKLEIKGGGGSGGGGSGGGGSQVQLQESGPGLVKPSETLSLTCTVSGVSLPDYGVSWIRQPPGKGLEWIGVIWGSETTYYQSSLKSRVTISKDNSKNQVSLKLSSVTAADTAVYYCAKHYYYGGSYAMDYWGQGTLVTVSSGGGGSEVQLQQSGPGLVKPSQTLSLTCAISGDSMLSNSDTWNWIRQSPSRGLEWLGRTYHRSTWYDDYASSVRGRVSINVDTSKNQYSLQLNAVTPEDTGVYYCARVRLQDGNSWSDAFDVWGQGTMVTVSSGGGGSQSALTQPASASGSPGQSVTISCTGTSSDVGGYNYVSWYQQHPGKAPKLMIYDVSNRPSGVSNRFSGSKSGNTASLTISGLQAEDEADYYCSSYTSSSTLYVFGTGTQLTVLTTTPAPRPPTPAPTIASQPLSLRPEACRPAAGGAVHTRGLDFACDIYIWAPLAGTCGVLLLSLVITLYCKRGRKKLLYIFKQPFMRPVQTTQEEDGCSCRFPEEEEGGCELRVKFSRSADAPAYQQGQNQLYNELNLGRREEYDVLDKRRGRDPEMGGKPRRKNPQEGLYNELQKDKMAEAYSEIGMKGERRRGKGHDGLYQGLSTATKDTYDALHMQALPPR
notes: Distal anti-CD19 scFv, GGGGS, proximal anti-CD22 scFv H/L with short linker; leader 1-21 left out; also called CG#c174; c174
B8: tandem CD19/CD22 CAR construct 172 (other)
chain: EIVMTQSPATLSLSPGERATLSCRASQDISKYLNWYQQKPGQAPRLLIYHTSRLHSGIPARFSGSGSGTDYTLTISSLQPEDFAVYFCQQGNTLPYTFGQGTKLEIKGGGGSGGGGSGGGGSQVQLQESGPGLVKPSETLSLTCTVSGVSLPDYGVSWIRQPPGKGLEWIGVIWGSETTYYQSSLKSRVTISKDNSKNQVSLKLSSVTAADTAVYYCAKHYYYGGSYAMDYWGQGTLVTVSSGGGGSEVQLQQSGPGLVKPSQTLSLTCAISGDSMLSNSDTWNWIRQSPSRGLEWLGRTYHRSTWYDDYASSVRGRVSINVDTSKNQYSLQLNAVTPEDTGVYYCARVRLQDGNSWSDAFDVWGQGTMVTVSSGGGGSGGGGSGGGGSQSALTQPASASGSPGQSVTISCTGTSSDVGGYNYVSWYQQHPGKAPKLMIYDVSNRPSGVSNRFSGSKSGNTASLTISGLQAEDEADYYCSSYTSSSTLYVFGTGTQLTVLTTTPAPRPPTPAPTIASQPLSLRPEACRPAAGGAVHTRGLDFACDIYIWAPLAGTCGVLLLSLVITLYCKRGRKKLLYIFKQPFMRPVQTTQEEDGCSCRFPEEEEGGCELRVKFSRSADAPAYQQGQNQLYNELNLGRREEYDVLDKRRGRDPEMGGKPRRKNPQEGLYNELQKDKMAEAYSEIGMKGERRRGKGHDGLYQGLSTATKDTYDALHMQALPPR
notes: Distal anti-CD19 scFv, GGGGS, proximal anti-CD22 scFv H/L; leader 1-21 left out; end of range counted without it; also called CG#c172; c172

target: T1, soluble CD22-Fc (R&D Systems); assay: FACS surface staining of transduced JNL cells with CD22-Fc

Binding result, binds:
B1, B2, B3, B4, B5, B6, B7, B8
